Assay results reported in patent US20140018290A1 (Novo Nordisk, published 2014).
One block for each binder: values may come before it.

Key:
[1] = biological target: T1, human Leptin receptor (human, UniProt P48357 22-1165); test: SPA, displacement of human [125I]-Leptin from human Leptin receptor membranes, 0% HSA added; mean, n=3
T1 construct: whole, on cells; also called hLeptin receptor
T1 sequence (looked up): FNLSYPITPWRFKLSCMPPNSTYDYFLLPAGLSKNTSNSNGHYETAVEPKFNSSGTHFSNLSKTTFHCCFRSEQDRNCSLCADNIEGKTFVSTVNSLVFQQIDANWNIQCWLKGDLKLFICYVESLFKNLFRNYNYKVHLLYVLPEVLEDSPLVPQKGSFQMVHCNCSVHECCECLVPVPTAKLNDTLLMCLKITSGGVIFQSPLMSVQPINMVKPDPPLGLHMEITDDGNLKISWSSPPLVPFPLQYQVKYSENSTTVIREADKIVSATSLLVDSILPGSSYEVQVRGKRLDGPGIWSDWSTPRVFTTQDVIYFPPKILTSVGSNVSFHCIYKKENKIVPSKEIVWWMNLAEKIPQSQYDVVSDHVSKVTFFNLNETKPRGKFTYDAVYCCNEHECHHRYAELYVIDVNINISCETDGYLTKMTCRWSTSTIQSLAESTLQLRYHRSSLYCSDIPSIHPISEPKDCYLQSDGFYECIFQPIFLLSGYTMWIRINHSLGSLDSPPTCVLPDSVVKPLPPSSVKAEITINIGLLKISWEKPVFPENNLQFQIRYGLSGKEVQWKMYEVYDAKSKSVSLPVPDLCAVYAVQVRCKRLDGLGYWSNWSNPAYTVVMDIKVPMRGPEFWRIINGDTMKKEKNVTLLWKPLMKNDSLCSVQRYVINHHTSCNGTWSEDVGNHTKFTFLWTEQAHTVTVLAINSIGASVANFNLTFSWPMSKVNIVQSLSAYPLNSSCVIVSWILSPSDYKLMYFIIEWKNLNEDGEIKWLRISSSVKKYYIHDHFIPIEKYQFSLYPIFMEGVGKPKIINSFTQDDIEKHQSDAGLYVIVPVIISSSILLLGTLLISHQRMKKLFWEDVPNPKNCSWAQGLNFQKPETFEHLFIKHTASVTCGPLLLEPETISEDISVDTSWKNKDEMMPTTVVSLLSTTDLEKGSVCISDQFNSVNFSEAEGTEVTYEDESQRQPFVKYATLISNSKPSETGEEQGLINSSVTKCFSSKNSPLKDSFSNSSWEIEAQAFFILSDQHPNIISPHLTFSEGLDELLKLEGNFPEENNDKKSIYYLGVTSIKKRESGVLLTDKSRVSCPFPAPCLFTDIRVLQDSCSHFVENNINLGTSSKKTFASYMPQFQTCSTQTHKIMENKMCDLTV
Experimental: (§1) Human Leptin receptor SPA binding assay were performed in white 96-well plates in a total volume of 200 μl per well. Wheat germ agglutinin coated beads containing scintillation liquid were reconstituted in binding buffer (50 mM Hepes, 1 mM CaCl₂, 5 mM MgCl₂, 0.02% Tween 20, 0.25% Ovalbumin pH 7.4) and mixed with membrane preparation to give final concentration of 1 mg beads and 10 μg total protein per well. 50.000 cpm per well of radio ligand human [¹²⁵I]-Leptin was added corresponding to a concentration of approximately […]. Human serum albumin was added to a final concentration of 2% when binding in presence of albumin was investigated. Freeze dried Leptin analogues were dissolved in PBS to 100 μM and serial diluted in binding buffer to give a final assay concentration ranging from 100 nM to […]. The plate was sealed and incubated at +25° C. for 2 hours in a plate shaker set at 400 rpm and thereafter centrifuged at 1500 rpm for 10 minutes prior to reading of luminescence on a microplate scintillation and luminescence counter. Displacement of radioligand was measured as reduction in luminescence and IC₅₀ values were calculated by nonlinear regression analysis of sigmoidal dose-response curves.

[2] = biological target: T1, human Leptin receptor; test: SPA, displacement of human [125I]-Leptin from human Leptin receptor membranes, 2% HSA added; mean, n=3
Experimental: as §1

[3] = biological target: T1, human Leptin receptor; test: cell-based or functional assay
[4] = biological target: T1, human Leptin receptor; test: whole cell binding, displacement of [125I]-hLeptin on HEK293 cells expressing human Leptin receptor; mean, n=4
Experimental: HEK293 cells stably expressing the human Leptin receptor were seeded in poly-D-lysine coated 24 well plates at 200.000 cells per well and cultured for two days in alpha-minimum essential medium (MEM), cell culture media containing 10% heat inactivated fetal calf serum (FCS), 1% penicillin-streptomycin (P/S), 1 mg/ml Zeocin and 1 mg/ml G418 antibiotic at +37° C. in a humidified atmosphere with 5% CO₂. Prior to the experiment, cells were rinsed in pure MEM medium, followed by incubation in Leptin analogues at 10,3,1,0.3,0.1,0.03 and 0.01 nM concentrations for 45 minutes in MEM containing 0.005% polysorbate 20 and 0.1% ovalbumin and [¹²⁵I]-hLeptin 100000 cpm. The cells were washed three times in ice cold MEM and were lysed in lysis buffer containing 1.0% nonidet P-40, 0.5% triton X-100 (C₁₄H₂₂O(C₂H₄O)ₙ) and 1M sodium hydroxide. Samples are transferred to plastic

IC50 [1]: 0.38 nM
IC50 [2]: 5.93 nM
Luciferase assay, Mean EC50 nM, 0% HSA added [3]: 0.24 nM
Luciferase assay, Mean IC50 nM, 0.7% HSA added [3]: 0.42 nM
B1: Compound C (protracted rat Leptin: rat Leptin alkylated with compound 2 at the N-terminal amino group) (ligand)
chain: VPIHKVQDDTKTLIKTIVTRINDISHTQSVSARQRVTGLDFIPGLHPILSLSKMDQTLAVYQQILTSLPSQNVLQIAHDLENLRDLLHLLAFSKSCSLPQTRGLQKPESLDGVLEASLYSTEVVALSRLQGSLQDILQQLDLSPEC
modifications: N-terminal amino group alkylated with compound 2 (protractor group: C18 diacid (17-carboxyheptadecanoyl)-gamma-Glu-OEG-OEG-4-formylbenzylamide, attached by reductive alkylation)
notes: also called protracted rLeptin

IC50 [1]: 0.49 nM
IC50 [4]: 1.01 nM
IC50 [2]: 0.88 nM
Luciferase assay, Mean EC50 nM, 0% HSA added [3]: 0.41 nM
Luciferase assay, Mean IC50 nM, 0.7% HSA added [3]: 0.52 nM
B2: Rat Leptin (ligand)
chain: B1 chain
notes: also called rLeptin; wt rat Leptin

IC50 [1]: 1.9 nM
IC50 [4]: 1.76 nM
IC50 [2]: 37.1 nM
Luciferase assay, Mean EC50 nM, 0% HSA added [3]: 1.57 nM
Luciferase assay, Mean IC50 nM, 0.7% HSA added [3]: 1.92 nM
B3: Compound A (protracted rat Leptin: rat Leptin alkylated with compound 1 at the N-terminal amino group) (ligand)
chain: B1 chain
modifications: N-terminal amino group alkylated with compound 1 (protractor group with 16-(tetrazol-5-yl)hexadecanoylsulfamoyl-butyryl, two Glu, OEG, Gly and an aldehyde-derived anchor)
notes: Mw 17190 g/mol
